In assay [1] the target is T1, recombinant N-terminal fragment (residues 1-330) of human cardiac-type Myosin-binding protein C3 with … (human, UniProt Q14896 1-330).
T1 construct: expressed in HEK293-F cells and purified as a monomer; also called MYBPC3; N-terminal MyBPC-Fragment (1-330)
Kind of assay: Elecsys ECLIA sandwich; row antibody biotinylated (capture), second antibody ruthenylated 5B8 (detection); 0.9 pg/mL MYBPC3.

The target of assay [2] is T1, recombinant N-terminal fragment …. Description: Elecsys ECLIA sandwich; row antibody biotinylated (capture), second antibody ruthenylated 25H1 (detection); 0.9 pg/mL MYBPC3.
Assay [3] shares this target. Kind of assay: Elecsys ECLIA sandwich; row antibody biotinylated (capture), second antibody ruthenylated 7D5 (detection); 0.9 pg/mL MYBPC3.
Assay [4] shares this target. Kind of assay: sandwich ELISA, streptavidin MTP; row antibody biotinylated (capture), second antibody DIG-labelled 7B5 (detection); 2.7 pg/mL MYBPC3. (In general: ELISA stands for enzyme-linked immunosorbent assay.)
The target is the same in assay [5]. Kind of assay: Elecsys ECLIA sandwich; row antibody biotinylated (capture), second antibody ruthenylated 11F2 (detection); 0.9 pg/mL MYBPC3.
Assay [6] has the same target. Kind of assay: Elecsys ECLIA sandwich; row antibody biotinylated (capture), second antibody ruthenylated 25H1 (detection); 2.7 pg/mL MYBPC3.
Assay [7] shares this target. Description: Elecsys ECLIA sandwich; row antibody biotinylated (capture), second antibody ruthenylated 7B5 (detection); 2.7 pg/mL MYBPC3.
For assay [8] the target is unchanged. Description: sandwich ELISA, streptavidin MTP; row antibody biotinylated (capture), second antibody DIG-labelled 4.6.6 (detection); 1 ng/mL MYBPC3.
The target is the same in assay [9]. Description: Elecsys ECLIA sandwich; row antibody biotinylated (capture), second antibody ruthenylated 7B5 (detection); 0.9 pg/mL MYBPC3.
Assay [10] has the same target. Kind of assay: Elecsys ECLIA sandwich; row antibody biotinylated (capture), second antibody ruthenylated 13F11 (detection); 2.7 pg/mL MYBPC3.
Assay [11] shares this target. Kind of assay: Elecsys ECLIA sandwich; row antibody biotinylated (capture), second antibody ruthenylated 8H1 (detection); 2.7 pg/mL MYBPC3.
The target is the same in assay [12]. Kind of assay: Elecsys ECLIA sandwich; row antibody biotinylated (capture), second antibody ruthenylated 11F2 (detection); 2.7 pg/mL MYBPC3.
Assay [13] shares this target. Description: Elecsys ECLIA sandwich; row antibody biotinylated (capture), second antibody ruthenylated 7D5 (detection); 2.7 pg/mL MYBPC3.
For assay [14] the target is unchanged. Description: sandwich ELISA, streptavidin MTP; row antibody biotinylated (capture), second antibody DIG-labelled 4.7.10 (detection); 1 ng/mL MYBPC3.
Assay [15] has the same target. Kind of assay: sandwich ELISA, streptavidin MTP; row antibody biotinylated (capture), second antibody DIG-labelled 5B8 (detection); 2.7 pg/mL MYBPC3.
Assay [16] has the same target. Description: Elecsys ECLIA sandwich; row antibody biotinylated (capture), second antibody ruthenylated 13F11 (detection); 0.9 pg/mL MYBPC3.
Assay [17] shares this target. Kind of assay: sandwich ELISA, streptavidin MTP; row antibody biotinylated (capture), second antibody DIG-labelled 4.1.1 (detection); 1 ng/mL MYBPC3.
Assay [18] shares this target. Description: SPR (Biacore) at 37°C, antibody captured via anti-mouse Fc, MYBPC3 0.4-90 nM, Langmuir 1:1 fit over 2 series. (In general: Surface plasmon resonance follows binding to a sensor surface in real time, without labels.)
Assay [19] shares this target. Description: Elecsys ECLIA sandwich; row antibody biotinylated (capture), second antibody ruthenylated 8H1 (detection); 0.9 pg/mL MYBPC3.
For assay [20] the target is unchanged. Kind of assay: Elecsys ECLIA sandwich; row antibody biotinylated (capture), second antibody ruthenylated 5B8 (detection); 2.7 pg/mL MYBPC3.
Assay [21] shares this target. Description: Elecsys ECLIA sandwich; row antibody biotinylated (capture), second antibody ruthenylated 4.1.1 (detection); 0.9 pg/mL MYBPC3.
Assay [22] has the same target. Description: SPR (Biacore) at 37°C, antibody captured via anti-rabbit Fc, MYBPC3 0.4-90 nM, Langmuir 1:1 fit over 2 series.
Assay [23] shares this target. Description: sandwich ELISA, streptavidin MTP; row antibody biotinylated (capture), second antibody DIG-labelled 4.1.1 (detection); 2.7 pg/mL MYBPC3.
Assay [24] shares this target. Kind of assay: Elecsys ECLIA sandwich; row antibody biotinylated (capture), second antibody ruthenylated 4.1.1 (detection); 2.7 pg/mL MYBPC3.
The target is the same in assay [25]. Description: sandwich ELISA, streptavidin MTP; row antibody biotinylated (capture), second antibody DIG-labelled 4.7.10 (detection); 2.7 pg/mL MYBPC3.

T1 sequence (Q14896 other isoform, or with tags, fused parts or gaps limits assumed): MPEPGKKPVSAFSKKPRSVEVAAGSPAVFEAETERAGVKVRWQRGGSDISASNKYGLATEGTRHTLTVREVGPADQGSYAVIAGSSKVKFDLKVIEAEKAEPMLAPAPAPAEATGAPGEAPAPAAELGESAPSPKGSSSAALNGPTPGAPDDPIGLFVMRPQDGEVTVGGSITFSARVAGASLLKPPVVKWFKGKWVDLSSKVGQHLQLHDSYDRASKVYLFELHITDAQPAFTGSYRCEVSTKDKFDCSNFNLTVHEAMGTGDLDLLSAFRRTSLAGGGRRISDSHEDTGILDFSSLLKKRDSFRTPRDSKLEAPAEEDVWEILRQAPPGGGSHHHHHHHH

B1: monoclonal antibody 4.1.1 (antibody, V domains shown)
VH: QVQLKESGPGLVAPSQSLSITCTVSGFSLTGYGVNWVRQPPGKGLEWLGMIWGDGSTDYNSVYKSRLSISKDNSKSQVFLKMNSLQTDDTARYYCARRDTGGASMDYWGQGTSVTVSS
VL: DILMTQSPAILSVSPGERVSFSCRASQNIGTNMHWYQQRTNGSPRLLIRFASESFSGIPSRFSGTGSGTDFTLRINSVESEDIADYYCQQSYNWPFTFGAGTKLELK
notes: Mouse hybridoma monoclonal IgG; Biotinylated, DIG-labelled or ruthenylated in the sandwich assays; also called M-4.1.1; M.4.1.1
On to B1, for which the “ratio (0.9 pg/mL) / blank” value in assay [1] was 0.99; in [2], 1.01; in assay [3], 1.02; in [5] it was 1.01; in assay [9], 1.11; in [16], 1.14. In assay [19], the “ratio (0.9 pg/mL) / blank” value worked out at 1.02. Further, the “Ratio (Δ OD 2.7 pg/mL/blank)” value in assay [4] was 1.43; in assay [15], 0.99. For the same molecule, the “ratio (2.7 pg/mL) /blank” value in [6] turned out to be 1; in assay [7] it was 1.32; in [10], 1.32; in [11], 1.01; in assay [12], 1; in assay [13] it was 1.09. In assay [20], the “ratio (2.7 pg/mL) /blank” value was found to be 1. The “Ratio (Δ OD 1 ng/mL MYBPC3) / blank” value amounted to 3.39 in assay [8], 23.6 in [14] and 1.09 in [17]. Further, the Kd (usually the constant that tells how readily two partners part at equilibrium) in assay [18] is 0.056 nM. Moreover, in assay [18], the koff (commonly the rate constant with which the complex falls apart) stood at 0.00012 s⁻¹. Also, the on-rate (kon) – broadly, the rate constant with which the complex forms – in assay [18] came out at 2.1e+06 M⁻¹ s⁻¹.

B2: monoclonal antibody 7B5 (antibody, V domains shown)
VH: QEQLEESGGGLVKPGGTLTLTCKVSGFDFSSGYDMCWVRQAPGKGLESIACIGSSSASTWYANWVNGRFTVSRSTSLNTVDLKMTSLTVADTATYFCARESSTEYYYNLWGPGTLVTVSS
VL: DIVMTQTPASVEAAVGGTVTIKCQASQSIGNALAWYQQKPGQPPKLLIYSTSYLPSGVPSRFKGGGSGAEYTLTISDLECADAATYYCQSYYVSTSSSDRSSFGGGTEVVVK
notes: Rabbit B-cell derived monoclonal IgG, expressed recombinantly in HEK293 cells; Biotinylated, DIG-labelled or ruthenylated in the sandwich assays; also called mAB 7B5; MAK<MYPBC3<rK-7B5-IgG(SPA)
As to B2, the “ratio (0.9 pg/mL) / blank” value came out at 1.18 in assay [21], 1.01 in [2] and 1.01 in assay [16]. In addition, the “Ratio (Δ OD 2.7 pg/mL/blank)” value in [4] amounted to 0.98; in [23], 3.07; in [15] it was 1.01; in assay [25], 0.98. Further, the “ratio (2.7 pg/mL) /blank” value in [6] stood at 1.03; in [10], 1.02; in [24] it was 1.4. In addition, the Kd in assay [22] was 0.19 nM. The koff in [22] amounted to 0.00051 s⁻¹. The kon in [22] was determined as 2.7e+06 M⁻¹ s⁻¹.

The values above are taken from patent publication EP4685489A2 (Roche Diagnostics GmbH, dated 2026).
